Earlier results, collected in paper PMC12291208.

Experiments:
Lys118 = Lys118 (UniProt position 200, YVYKPKNTHEQ); details: folded protein; Lys92 buried, Lys118 solvent exposed
Lys92 = Lys92 (UniProt position 174, RGLAYKYADGK); details: folded protein; Lys92 buried, Lys118 solvent exposed

| Substance | pKa (Lys118) | pKa (Lys92) |
| --- | --- | --- |
| Staphylococcal nuclease (SNase) N118K variant (Staphylococcus aureus (inferred from 'staphylococcal'); N118K) | 10.4 |  |
| Staphylococcal nuclease (SNase) I92K variant (Staphylococcus aureus (inferred from 'staphylococcal'); I92K) |  | 5.2 |
